The results in this text go back to patent US20240352134A1 (NANJING IMMUNOPHAGE BIOTECH, published 2024).

The target of assay [1] is T1, human CCR8 (human, UniProt P51685 1-355).
T1 construct: whole, on cells; also called hCCR8; C-C Motif Chemokine Receptor 8
The assay is described as follows: FACS as in Example 2; antibody after Freeze/thaw 5FT; ratio to T0.

The target of assay [2] is T1, human CCR8. The assay is described as follows: cell-based or functional assay.
In assay [3] the target is T1, human CCR8. The assay is described as follows: FACS as in Example 2; antibody after Oxidation 24 h; ratio to T0.
Assay [4] has as its target T1, human CCR8. The assay is described as follows: FACS as in Example 2; antibody after 40° C. 4 W; ratio to T0.
Assay [5] deals with T1, human CCR8. The assay is described as follows: FACS on human CCR8-expressing 293F cells.
Assay [6] deals with T1, human CCR8. The assay is described as follows: cell-based or functional assay. This is another data set of the same source.
The target of assay [7] is T1, human CCR8. The assay is described as follows: FACS as in Example 2; antibody after 40° C. 2 W; ratio to T0.
For assay [8], the target named is T1, human CCR8. The assay is described as follows: FACS as in Example 2; antibody after 40° C. 1 W; ratio to T0.
The target of assay [9] is T1, human CCR8. The assay is described as follows: FACS as in Example 2; T0 (the reference itself).
For assay [10], the target named is T1, human CCR8. The assay is described as follows: binding affinity EC50, comparison of Table 12 (FACS on CCR8-expressing cells).
In assay [11] the target is T1, human CCR8. The assay is described as follows: FACS on human CCR8-expressing 293F cells. The source holds these as a separate data set.

T1 sequence (P51685 whole entry): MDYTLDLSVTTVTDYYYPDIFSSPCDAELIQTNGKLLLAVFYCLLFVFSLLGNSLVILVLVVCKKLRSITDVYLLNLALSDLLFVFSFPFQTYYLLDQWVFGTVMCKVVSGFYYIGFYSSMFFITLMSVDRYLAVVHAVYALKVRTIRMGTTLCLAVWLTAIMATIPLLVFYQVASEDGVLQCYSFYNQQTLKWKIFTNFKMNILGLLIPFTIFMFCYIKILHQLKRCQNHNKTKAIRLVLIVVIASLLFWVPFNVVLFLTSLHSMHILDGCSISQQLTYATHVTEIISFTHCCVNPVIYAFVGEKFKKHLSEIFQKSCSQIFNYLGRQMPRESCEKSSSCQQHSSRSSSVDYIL

B1: 1G17hz3 (antibody, V domains shown)
VH: QVQLVQSGAEVKKPGASVKVSCKASGYTFADYEMHWVRQAPGQGLEWMGAIDPETGRTAYAQKFQGRVTMTADRSTSTAYMELSSLRSEDTAVYYCTRRAYWGGWGQGTLVTVSS
VL: DVVMTQSPLSLPVTLGQPASISCRSSQSLVHSSGNTYLHWYQQRPGQSPRLLIYKVSNRFSGVPDRFSGSGSGTDFTLKISRVEAEDVGVYFCSQSTHVPYTFGQGTKLEIK
notes: Humanized variant of 1G17
As a reminder, the EC50 is the concentration giving half of the maximal effect. Low values mean an effect from little substance, high ones a need for much substance. Regarding B1, in the assay with human CCR8 [1], the “Affinity EC50 (nM) Ratio” value worked out at 2.43. Further, the “Calcium mobilization IC50” value in the assay with human CCR8 [2] was 25300 pM. The “Affinity EC50 (nM) Ratio” value in the assay with human CCR8 [3] worked out at 1.71. Further, in the assay with human CCR8 [4], the “Affinity EC50 (nM) Ratio” value was 1.1. This molecule also gave an EC50 with human CCR8 [5] of 470 pM. Also, in the assay with human CCR8 [6], the “Calcium mobilization IC50 (nM) Ratio; 40° C. 1 W” value amounted to 3.07, the “Calcium mobilization IC50 (nM) Ratio; 40° C. 2 W” value worked out at 1.38, the “Calcium mobilization IC50 (nM) Ratio; 40° C. 4 W” value worked out at 2.35 and the “Calcium mobilization IC50 (nM) Ratio; Freeze/thaw 5FT” value stood at 0.32. For the same molecule, in the assay with human CCR8 [6], the “Calcium mobilization IC50 (nM) Ratio; Oxidation 24 h” value was found to be 1.14 and the “Calcium mobilization IC50 (nM) Ratio; T0” value worked out at 1. Further, in the assay with human CCR8 [7], the “Affinity EC50 (nM) Ratio” value turned out to be 1.31. Besides, the “Affinity EC50 (nM) Ratio” value with human CCR8 [8] worked out at 0.91. Moreover, in the assay with human CCR8 [9], the “Affinity EC50 (nM) Ratio” value stood at 1.

B2: TPP-23411 (antibody, V domains shown)
VH: EVQLLESGGGLVQPGGSLRLSCAASGFTFSSYGMHWVRQAPGKGLEWVSAINWNGGSTGYADSVKGRFTISRDNSKNTLYLQMNSLRAEDTAVYYCARGHHSGYDGRFFDYWGQGTLVTVSS
VL: QSVLTQPPSVSGAPGQRVTISCTGSSSNIGAGYNVHWYQQLPGTAPKLLIYTNNRRPSGVPDRFSGSKSGTSASLAISGLRSEDEADYYCAAWDASLSGWVFGGGTKLTVLG
For the molecule B2, in the assay with human CCR8 [10], the midpoint of the response, the EC50, lay at 650 pM.

B3: 3F11hz1 (antibody, V domains shown)
VH: EVQLVESGGGLVQPGGSLKLSCAASGFSFNTYAMHWVRQASGKGLEWVGRIRSKSNYYATYYAASVKGRFTISRDDSKNTAYLQMNSLKTEDTAVYYCTRGRELGDYYAMDYWGQGTLVTVSS
VL: DIVMTQSPLSLPVTPGEPASISCRSSKSLLHSNGNTYLDWYLQKPGQSPQLLIYRMSNRASGVPDRFSGSGSGTDFTLKISRVEAEDVGVYYCMQHLEYPFTFGQGTKLEIK
notes: Humanized variant of 3F11
Turning to B3, the binding result with human CCR8 [11] is reported as “binds”.

B4: 3F11hz3 (antibody, V domains shown)
VH: EVQLVESGGGLVQPGGSLKLSCAASGFTFSTYAMNWVRQASGKGLEWVGRIRSKSNYYATYYADSVKDRFTISRDDSKNTAYLQMNSLKTEDTAVYYCVRGRELGDYYAMDYWGQGTLVTVSS
VL: DIVMTQSPLSLPVTPGEPASISCRSSKSLLHSNGNTYLDWFLQKPGQSPQLLIYRMSNLASGVPDRFSGSGSGTDFTLKISRVEAEDVGVYYCMQHLEYPFTFGQGTKLEIK
notes: Humanized variant of 3F11
Take B4: the binding result with human CCR8 [11] is reported as “binds”.

B5: 3F11hz5 (antibody, V domains shown)
VH: EVQLVESGGGLVQPGGSLKLSCAASGFSFNTYAMNWVRQASGKGLEWVGRIRSKSNYYATYYAASVKGRFTISRDDSKNTAYLQMNSLKTEDTAVYYCVRGRELGDYYAMDYWGQGTLVTVSS
VL: DIVMTQSPLSLPVTPGEPASISCRSSKSLLHSNGNTYLEWYLQKPGQSPQLLIYRMSNRASGVPDRFSGSGSGTDFTLKISRVEAEDVGVYYCMQHLEYPFTFGQGTKLEIK
notes: Humanized variant of 3F11
As to B5, the binding result with human CCR8 [11] is given as “binds”.

B6: 3F11hz6 (antibody, V domains shown)
VH: EVQLVESGGGLVQPGGSLKLSCAASGFSFNTYAMNWVRQASGKGLEWVGRIRSKSNYYATYYAASVKGRFTISRDDSKNTAYLQMNSLKTEDTAVYYCVRGRELGDYYAMDYWGQGTLVTVSS
VL: DIVMTQSPLSLPVTPGEPASISCRSSKSLLHSSGNTYLDWFLQKPGQSPQLLIYRMSNRASGVPDRFSGSGSGTDFTLKISRVEAEDVGVYYCMQHLEYPFTFGQGTKLEIK
notes: Humanized variant of 3F11
Consider B6, for which the binding result with human CCR8 [11] is reported as “binds”.

B7: 3O20hz2 (antibody, V domains shown)
VH: EVQLVESGGGLVQPGGSLKLSCATSGFSFNAYAMNWVRQASGKGLEWVGRIRSKSNNYATYYAASVKGRFTISRDDSKTTLYLQMNSLKTEDTAVYYCVRGGYHGNSAYFDVWGQGTLVTVSS
VL: DIVMTQSPLSLPVTPGEPASISCRSSKSLLHSNGNTYLYWFLQKPGQSPQLLIYRMSNLASGVPDRFSGSGSGTDFTLKISRVEAEDVGVYYCLQHLEYPFTFGQGTKLEIK
notes: Humanized variant of 3O20
B7: the “Affinity EC50 (nM) Ratio” value with human CCR8 [1] came out at 1.22. Further, in the assay with human CCR8 [2], the “Calcium mobilization IC50” value is 7390 pM. For the same molecule, in the assay with human CCR8 [3], the “Affinity EC50 (nM) Ratio” value stood at 2.13. For the same molecule, in the assay with human CCR8 [4], the “Affinity EC50 (nM) Ratio” value was 1.65. In the assay with human CCR8 [5], a half-maximal response (EC50) required 135 pM. Moreover, in the assay with human CCR8 [6], the “Calcium mobilization IC50 (nM) Ratio; 40° C. 1 W” value was 3.02, the “Calcium mobilization IC50 (nM) Ratio; 40° C. 2 W” value stood at 0.98, the “Calcium mobilization IC50 (nM) Ratio; 40° C. 4 W” value was 1.86 and the “Calcium mobilization IC50 (nM) Ratio; Freeze/thaw 5FT” value amounted to 1.37. In addition, in the assay with human CCR8 [6], the “Calcium mobilization IC50 (nM) Ratio; Oxidation 24 h” value worked out at 1.42 and the “Calcium mobilization IC50 (nM) Ratio; T0” value came to 1. For the same molecule, the “Affinity EC50 (nM) Ratio” value with human CCR8 [7] was determined as 1.14. In addition, in the assay with human CCR8 [8], the “Affinity EC50 (nM) Ratio” value turned out to be 0.79. Further, the “Affinity EC50 (nM) Ratio” value with human CCR8 [9] stood at 1.
